B1: Ax20 peptidase (peptidase from Corynebacterium sp. Ax20, SEQ ID NO:2), recombinant, without histidine tag (enzyme)
chain: MSNDKAATSTNFNLTPNRERIFQELSELISHYSPHSMPEHADTHEEAAKWVTAKLEELGLDVTRHPTVDDADTIIGVKEPVGDAPTILLYSHYDVVPAQNPAVWTNDPLELDERDGRWYGRGAADCKGNVIMHLEALRMVQENGGTDLGLKVVMEGSEELGGEDGLGKLIDANPELFTADVIFIGDGGNVAVGIPTLTTHLRGGAQLRFKVDTLEGPVHSGGWGGAAPDAAHALIRIIDSFFDEHGRTTIEGVDTTAKWEGDPYDRETFRKDARVLDGVQLLGTVDDEPADMVWARPAITVIGFTSVPVEDATNIVNPTAEAQFNLRVPAPQSAAEVAKKVEEQIRARAPWGAKVEVSITGVNEPFSTDPNGPAVQHFGKCLQDAYGAEHLTVVGTGGSIPLTVTLQKHFPDAEFALYGVADPAANIHGVDESVDPTEIEHVAIAEAEFLLTYGK
B2: Ax20 peptidase with histidine tag (SEQ ID NO:2 ligated to a 6x Histidine-Tag), recombinant (enzyme, not shown: small tags and cut ends)
chain: B1 chain
B3: β-lyase from Corynebacterium sp. Ax20 (cystathionine-β-lyase, metC gene product) (protein)
chain: MQFSNLDTLRTRGTRKWTQFDDDVIPMFVAESDFPTAPAIKEAIIDACEREMFGYTPAPHAHHLGEAVADFYDWRYGWRPDAAKIFPVADVVRGVLLAIQYFTDGDVIVPVPAYFPFLPIAEAAGRNRIDISSDKGLEGGLDMAEVEEAFKNGAGSIIVTNPFNPGGWMFTSEELDQICDIARRYKGRVLVDEIHAPLTYGKRHVCAAANNPDVCITVTATSKAWNVAGLKCAQMIFTNDEDVKTWNAINPVAKDGVGTLGIIAAEAAYESGREHLDWQVEQLKANRDWLVENLPSLIPGIRFEIPDATYLMFLDFKDTKLGVDKPAAYLLKHARVALSEGVDFGPGGEHRARMNFATSPEILKEATERIARAIEVV

Assays:
[1] = biological target: cys-gly-conjugate (compound of formula FIII); test: cell-based or functional assay
Pro-Gly = biological target: T1, Pro-Gly
T1 chain: PG

Gly-Gly = biological target: T2, Gly-Gly
T2 chain: GG

[2] = biological target: T3, cys-gly-conjugate (compound of formula FIII)
T3 chain: CG

[3] = biological target: T4, H-Cys(Bzl)-Gly-OH (S-benzyl-Cys-Gly)
T4 chain: CG

Z-Gly-Gly = biological target: T5, Z-Gly-Gly
T5 chain: GG

Ala-Gly = biological target: T6, Ala-Gly
T6 chain: AG

Ala-Ala = biological target: T7, Ala-Ala
T7 chain: AA

Binder | release of 3-sulfanyl-3-methyl-hexanol from the Cys-Gly-conjugate [mM]; 10 fold dilution of clear cell lysate, + β-lyase [1] [mM] | release of 3-sulfanyl-3-methyl-hexanol from the Cys-Gly-conjugate [mM]; 100 fold dilution of clear cell lysate, + β-lyase [1] [mM] | release of 3-sulfanyl-3-methyl-hexanol from the Cys-Gly-conjugate [mM]; 1000 fold dilution of clear cell lysate, + β-lyase [1] [mM] | release of a free NH2 group (fluorescamine derivatisation) (Pro-Gly) | Cleavage (thin layer chromatography) (Gly-Gly) | Cleavage (thin layer chromatography) [2] | Cleavage (thin layer chromatography) [3] | Cleavage (thin layer chromatography) (Z-Gly-Gly) | Cleavage (thin layer chromatography) (Ala-Gly) | Cleavage (thin layer chromatography) (Ala-Ala) | Cleavage (thin layer chromatography) (Pro-Gly) | release of 3-sulfanyl-3-methyl-hexanol from cys-gly-conjugate [mM] (gas chromatography) [2]
B1 | 1 | 0.92 | 0.46 | Cleavage of the peptide substrate Pro-Gly by addition of the recombinant Ax20 peptidase (SEQ ID NO: 2) released a unique free NH2 group |  |  |  |  |  |  |  | 
B2 | 0.94 | 0.88 | 0.36 |  | + | +++ | +++ | - | ++ | ++ | + | 
B3 |  |  |  |  |  |  |  |  |  |  |  | < 0.03
